The values below come from patent publication US20180185504A1 (Regeneron, published 2018).

Residue numbers refer to the chain shown, from its start. Names and notes keep the numbering of the source.

The labels stand for the following.
T1: macaca fascicularis (mf) PRLR.mmh (soluble monomeric monkey PRLR) (Macaca fascicularis)
T1 construct: called soluble monomeric PRLR protein
T1 chain: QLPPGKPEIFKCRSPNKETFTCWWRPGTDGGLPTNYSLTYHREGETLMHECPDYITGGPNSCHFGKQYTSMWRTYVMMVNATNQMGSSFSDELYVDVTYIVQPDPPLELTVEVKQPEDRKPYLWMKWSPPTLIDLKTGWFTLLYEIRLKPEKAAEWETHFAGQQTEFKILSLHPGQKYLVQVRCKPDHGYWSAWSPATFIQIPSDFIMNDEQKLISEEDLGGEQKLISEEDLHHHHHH

T2: hPRLR.mFc (soluble dimeric human PRLR) (human)
T2 construct: dimeric PRLR construct
T2 chain: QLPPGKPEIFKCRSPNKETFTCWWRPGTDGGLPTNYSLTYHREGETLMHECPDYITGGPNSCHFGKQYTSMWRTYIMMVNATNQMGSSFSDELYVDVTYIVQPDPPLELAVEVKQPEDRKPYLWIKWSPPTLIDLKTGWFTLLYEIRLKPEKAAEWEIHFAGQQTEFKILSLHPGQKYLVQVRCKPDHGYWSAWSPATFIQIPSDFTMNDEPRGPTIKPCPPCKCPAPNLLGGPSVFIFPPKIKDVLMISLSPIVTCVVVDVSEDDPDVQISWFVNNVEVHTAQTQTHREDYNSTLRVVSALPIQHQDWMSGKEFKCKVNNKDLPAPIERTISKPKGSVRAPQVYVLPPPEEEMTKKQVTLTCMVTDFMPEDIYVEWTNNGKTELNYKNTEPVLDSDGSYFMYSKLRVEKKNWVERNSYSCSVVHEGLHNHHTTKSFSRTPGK

T3: hPRLR.mmh (soluble monomeric human PRLR) (human)
T3 construct: called soluble monomeric PRLR protein
T3 chain: T1 chain with V76I, T110A, M125I, T158I, I207T

B1: H1H6782P (antibody, human IgG1, V domains shown)
VH: EVQLVESGGGLVQPGRSLRLSCAASGFTFDDYAMHWVRQAPGKGLEWVSGIIWNSGHIGYGDSVKGRFTISRDNAKKSLYLQMNSLRAEDTALYYCARDSGRYQSYFDYWGQGTLVTVSS
VL: DIQMTQSPSTLSASVGDRVTITCRASHIISSWLAWYQQKPGKAPKVLIFKASSLESGVPSRFSGSGSGTEFTLTISSLQPDDFATYYCQQYNTYSRTFGQGTKVEIK
notes: Human IgG1 Fc (H1H)
B2: H1H6765P (antibody, human IgG1, V domains shown)
VH: EVQLVESGGGVVRPGGSLRLSCVGSGFSFDDHGMNWVRQGPGKGLEWVSGFNWNGGSTNYAESVKGRFTISRDNARNSLFLQMNSLRAEDTALYYCVRGRSGWFNDAFDVWGPGTMVTVSS
VL: EIVLTQSPGTLSLSPGERATLSCRASQTINSNYLAWYRQKPGQTPRLLIYGTSSRATGIPDRFSGSGSGTDFSLTISRLEPEDFAVFYCQQYAGLPTFGPGTKVDIK
notes: Human IgG1 Fc (H1H)
B3: H1H6966N (antibody, human IgG1, V domains shown)
VH: QVQLVQSGAEVQKPGASVKVSCKVSGYTLTALSIHWVRQAPGKGLEWMGNFDPGDGETIHAQKFQGRVTMTGDTSTDTAYMELSSLRSEDTAVYYCVGVTFDYWGQGTLVTVSS
VL: EIVMTQSPATLSVSPGERATLSCRASQSVASNLAWYQQKPGQAPRLLLYGASTRATGIPARFSGSGSGTEFTLTISSLQSEDFALYYCQHYNNWPLTFGGGTKVEIK
notes: Tested with human IgG1 Fc (H1H); also called H2M6966N
B4: H1H6967N (antibody, human IgG1, V domains shown)
VH: EVQLVESGGDLVHPGRSLRLSCAASGFPFDEYAMHWVRQVPGKGLEWVSGISWSNNNIGYADSVKGRFTISRDNAKNSLYLQMNSLRPEDTAFYYCAKSGIFDSWGQGTLVTVSS
VL: B3 VL with A30S, S31R, N32D, L48I, Y49H, T69A, T74I, L85V, H90Q
notes: Tested with human IgG1 Fc (H1H); also called H2M6967N
B5: H1H6975N (antibody, human IgG1, V domains shown)
VH: EVHLVESGGGLVQPGGSLRLSCAASGFTFSSYEMNWVRQTPGKGLEWISHISSRSVIIYYADSVKGRFTISRDNAKNSLFLQMNSLRAEDTAVYFCAGITIFGIPEYWGQGTLVTVSS
VL: EIVLTQSPATLSLSPGERATLSCRASQSVSSYFAWYQQKPGQAPRLLIYDASSRATGIPTRFSGSGSGTDFTLTISSLEPEDFAVYYCQQRSSWPITFGQGTRLEIK
notes: Tested with human IgG1 Fc (H1H); also called H2M6975N
B6: H1H6781P (antibody, human IgG1, V domains shown)
VH: EVQLVESGGDLVQPGESLRLSCTASGFTFNSYEMNWVRQAPGKGLEWVSYISSSGGTKYYVDSVKGRFTISRDNAKKSLYLQMNSLRADDTALYYCARLNGVDVFDIWGQGTMVTVSS
VL: DIQMTQSPSSLSASVGDRVTITCRASQDIFNYLAWFQQKPGKVPELLISAASTLQSGVPSRFSGSGSGTYFTLTISSLQPEDIATYYCQRYNSAPLTFGGGTKVEIK
notes: Human IgG1 Fc (H1H)
B7: H1H6783P (antibody, human IgG1, V domains shown)
VH: QVQLQQSGPGLVKPSQTLSLTCAISGDSVSSNTFAWNWIRQSPSRGLEWLGRTYYRSKWYIDYAESVKSRITITPDTSKNQFSLQLNSVTPEDTALYYCAGGYTYAPRGAFDIWGQGTMVTVSS
VL: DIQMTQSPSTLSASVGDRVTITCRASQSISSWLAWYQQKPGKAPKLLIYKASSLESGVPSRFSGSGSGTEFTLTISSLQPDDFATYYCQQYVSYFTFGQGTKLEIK
notes: Human IgG1 Fc (H1H)
B8: H1H6976N (antibody, human IgG1, V domains shown)
VH: EVQLLESGGGFVQPGGSLRLSCAASGFTFSSYAMSWVRQAPGKGLEWVSIISSNGRYTYYADSVKGRFTISRDNSKNTLYLQMNSLRAEDTAVYYCATVTGDWFDPWGQGTLVTVSS
VL: DIQLTQSPSFLSASVGDRVTITCWASQDIDISLAWYQQKPGKAPKLLIYAASTLQSGVPSKFSGSGSGTDFTLTISSLQPEDFSTYYCQQLNSYPITFGQGTRLDIK
notes: Tested with human IgG1 Fc (H1H); also called H2M6976N
B9: H1H6762P (antibody, human IgG1, V domains shown)
VH: QVQLVESGGGVVQPGRSLRLSCAASGFTFSHYGMVWVRQPPGKGLEWVALISFDGTTKYYADSVKGRFTISRDNSKNTLYLQMNSLRAEDTAVYFCVGAIAAAAFDLWGRGTLVTVSS
VL: EIVMTQSPATLSVSPGERATLSCRASQSVSSDLAWYQQKPGQAPRLLIYSASARATGIPARFTGSGSGTDFTLTISSLQSEDFAVYYCQQYNNWPMYTFGQGTKLEIK
notes: Human IgG1 Fc (H1H)
B10: H1H6774P (antibody, human IgG1, V domains shown)
VH: EVQLVESGGGLAQPGGSLRLSCVASGFTFSTYWMSWVRQAPGKGLDWVGNIKQDGSEQNYVDSVRGRFTISRDNAKNSLFLQMNSLRAEDTGVYYCATLLTKGDYWGQGTLVTVSS
VL: DIQMTQSPSSLSASVGDSVTITCRASQDISNYLDWFQQKPGKAPKSLIYAASILQGGVPSRFSGSGYGTDFTLTISSLQPEDFATYYCRQYKTYPFTFGPGTKVDIK
notes: Human IgG1 Fc (H1H)

One assay deals with T1, macaca fascicularis (mf) PRLR.mmh …. Nature of the assay: SPR Biacore, 25 C, mAb capture. As for the experimental part: (§1) Measurements were conducted on a T200 Biacore instrument. Kinetic association (kₐ) and dissociation (kd) rate constants were determined by processing and fitting the data to a 1:1 binding model using Scrubber 2.0 curve fitting software.
Background: Surface plasmon resonance follows binding to a sensor surface in real time, without labels.
One may read the Kd as the constant that tells how readily two partners part at equilibrium. One may read the koff as the first-order rate constant of dissociation. In general, kon refers to a measure of how fast the partners come together. B1 registered a Kd of 1.05 nM, a T½ of 0.683 h, a koff of 0.000279 s⁻¹ and a kon of 266000 M⁻¹ s⁻¹.
In the same order, the values of B2 are 0.254 nM, 1.43 h, 0.000134 s⁻¹ and 527000 M⁻¹ s⁻¹.
The matching figures for B3: 0.416 nM, 0.593 h, 0.000325 s⁻¹ and 782000 M⁻¹ s⁻¹.
In the same order, the values of B4 are 3.08 nM, 0.328 h, 0.000585 s⁻¹ and 190000 M⁻¹ s⁻¹.
Regarding B5, the Kd was 1.14 nM, the T½ came out at 1.47 h, the off-rate (koff) is 0.000131 s⁻¹ and the kon is 115000 M⁻¹ s⁻¹.
The matching figures for B6: 0.986 nM, 1.37 h, 0.000141 s⁻¹ and 143000 M⁻¹ s⁻¹.
In the same order, the values of B7 are 1.81 nM, 0.567 h, 0.000341 s⁻¹ and 189000 M⁻¹ s⁻¹.
In the same order, the values of B8 are 1.75 nM, 0.237 h, 0.000814 s⁻¹ and 466000 M⁻¹ s⁻¹.
On to B9, for which binding was put at a Kd of 0.511 nM, the T½ was found to be 0.917 h, the koff was 0.000208 s⁻¹ and the kon is 408000 M⁻¹ s⁻¹.
For the molecule B10, the Kd stood at 1.77 nM, the T½ amounted to 0.217 h, the koff was determined as 0.000875 s⁻¹ and the kon amounted to 495000 M⁻¹ s⁻¹.

The target in the next assay is T2, hPRLR.mFc (soluble dimeric human PRLR). As to the kind of experiment: SPR Biacore, 25 C, mAb capture. On the procedure:
as §1
For the molecule B1, binding was characterised by a dissociation constant (Kd) of 0.225 nM, the T½ is 2.7 h, the koff stood at 7.13e-05 s⁻¹ and the kon came to 317000 M⁻¹ s⁻¹.
In the same order, the values of B2 are 0.0392 nM, 5.65 h, 3.41e-05 s⁻¹ and 869000 M⁻¹ s⁻¹.
The matching figures for B3: 0.0439 nM, 4.71 h, 4.08e-05 s⁻¹ and 931000 M⁻¹ s⁻¹.
In the same order, the values of B4 are 0.11 nM, 4.32 h, 4.45e-05 s⁻¹ and 407000 M⁻¹ s⁻¹.
With B5, the Kd was 0.0684 nM, the T½ worked out at 9.8 h, the off-rate constant (koff) is 1.97e-05 s⁻¹ and the on-rate (kon) stood at 287000 M⁻¹ s⁻¹.
In the same order, the values of B6 are 0.236 nM, 3.18 h, 6.05e-05 s⁻¹ and 257000 M⁻¹ s⁻¹.
The matching figures for B7: 0.332 nM, 2.2 h, 8.77e-05 s⁻¹ and 264000 M⁻¹ s⁻¹.
The matching figures for B8: 0.0906 nM, 1.91 h, 0.000101 s⁻¹ and 1.12e+06 M⁻¹ s⁻¹.
In turn, B9 displayed a Kd of 0.0992 nM, a T½ of 2.98 h, a koff of 6.45e-05 s⁻¹ and a kon of 651000 M⁻¹ s⁻¹.
The matching figures for B10: 0.112 nM, 2.15 h, 8.94e-05 s⁻¹ and 798000 M⁻¹ s⁻¹.

Another assay concerns the target T3, hPRLR.mmh (soluble monomeric human PRLR). Nature of the assay: SPR Biacore, 25 C, mAb capture. As for the experimental part: as §1
B1 yielded a Kd of 0.685 nM, a T½ of 0.783 h, a koff of 0.000247 s⁻¹ and an on-rate (kon) of 360000 M⁻¹ s⁻¹.
For B2, the Kd came to 0.124 nM, the T½ was 1.7 h, the koff worked out at 0.000113 s⁻¹ and the kon was 907000 M⁻¹ s⁻¹.
In the same order, the values of B3 are 0.302 nM, 0.748 h, 0.000257 s⁻¹ and 852000 M⁻¹ s⁻¹.
The matching figures for B4: 1.35 nM, 0.58 h, 0.000332 s⁻¹ and 246000 M⁻¹ s⁻¹.
In the same order, the values of B5 are 0.49 nM, 2.62 h, 7.35e-05 s⁻¹ and 150000 M⁻¹ s⁻¹.
Consider B6, for which the Kd was determined as 0.61 nM, the T½ is 1.52 h, the koff came to 0.000127 s⁻¹ and the kon turned out to be 208000 M⁻¹ s⁻¹.
As for B7, binding was put at a Kd of 1.43 nM, the T½ was determined as 0.467 h, the dissociation rate constant (koff) stood at 0.000413 s⁻¹ and the kon is 288000 M⁻¹ s⁻¹.
In the same order, the values of B8 are 1.59 nM, 0.223 h, 0.000864 s⁻¹ and 544000 M⁻¹ s⁻¹.
In the same order, the values of B9 are 0.259 nM, 1.07 h, 0.000179 s⁻¹ and 692000 M⁻¹ s⁻¹.
The matching figures for B10: 1.14 nM, 0.233 h, 0.000818 s⁻¹ and 715000 M⁻¹ s⁻¹.
